From patent US11912794B2, “Modulation of structured polypeptide specificity” (BicycleRD Limited, priority 2011, dated 2024)
Ends that are not written are not given here.

Target: T1, Biotinylated hPK (Homo sapiens, UniProt P03952)
T1 construct: IHPKA, from human plasma; purchased Innovative Research, Novi, MI, USA IHPKA; host or cells: human plasma
Assay: Phage selections, abundance of sequences in selection outputs
Format: binding
Conditions: for Frequency (relative abundance in the total selection outputs): randomised WPAR motif at positions 2, 3, 4 & 5 within the 06-34-03 sequence
Protocol: Glycerol stocks of phage libraries were diluted to OD600=0.1 in 500 ml 2YT/chloramphenicol (30 μg/ml) cultures and phage were produced at 30° C. over night (15-16 hrs). Phage were purified and chemically modified as described in Heinis, et al., Nat Chem Biol 2009, 5 (7), 502-7 Biotinylated hPK (3 μg) (IHPKA, from human plasma, Innovative Research, Novi, MI, USA) was incubated with 50 μl pre-washed magnetic streptavidin beads (Dynal, M-280 from Invitrogen, Paisley, UK) for 10 minutes at RT. […] Blocked beads were then mixed with the blocked chemically modified phage and incubated for 30 minutes on a rotating wheel at RT. Beads were washed 8 times with washing buffer containing 0.1% Tween 20 and twice with washing buffer before incubation with 100 μl of 50 mM glycine, pH 2.2 for 5 minutes. Eluted phage were transferred to 50 μl of 1 M Tris-Cl, pH 8 for neutralization, incubated with 30 ml TG1 cells at OD600=0.4 for 90 minutes at 37° C. and the cells were plated on large 2YT/chloramphenicol plates. One or two additional rounds of panning were performed using the same procedures. In the second round of selection, neutravidin-coated magnetic beads were used to prevent the enrichment of streptavidin-specific peptides. The neutravidin beads were prepared by reacting 0.8 mg neutravidin (Pierce, Rockford, IL, USA) with 0.5 ml tosyl-activated magnetic beads (Dynal, M-280 from Invitrogen, Paisley, UK) according to the supplier's instructions.
The WPAR (SEQ ID NO: 18) motif identified from Example 1 was analysed in the context of the 06-34-03 peptide, in order to identify alternatives or improvements to the WPAR (SEQ ID NO: 18) motif. A library was constructed where positions 1, 6, 7, 8, 9 &10 of 06-34-03 were fixed and positions 2, 3, 4 & 5 were randomised (see ‘Randomisation of peptide domains—Library construction’ in Methods above). Selections against human plasma Kallikrein were performed at a variety of stringencies (see Phage selections' in Methods above). All output sequences were identified and analysed for target binding (see ‘Randomisation of peptide domains—Assay of binding of individual clones’ in Methods above). Table 17 lists each unique sequence, its relative abundance in the selection output (frequency), and a rank number according to target binding strength.

[1] = 2nd stringency from High (1st value of cell)
[2] = 3rd stringency from High (2nd value of cell)
[3] = 4th stringency from High (3rd value of cell)
[4] = 5th stringency from High (4th value of cell)

T1 sequence (P03952 20-638): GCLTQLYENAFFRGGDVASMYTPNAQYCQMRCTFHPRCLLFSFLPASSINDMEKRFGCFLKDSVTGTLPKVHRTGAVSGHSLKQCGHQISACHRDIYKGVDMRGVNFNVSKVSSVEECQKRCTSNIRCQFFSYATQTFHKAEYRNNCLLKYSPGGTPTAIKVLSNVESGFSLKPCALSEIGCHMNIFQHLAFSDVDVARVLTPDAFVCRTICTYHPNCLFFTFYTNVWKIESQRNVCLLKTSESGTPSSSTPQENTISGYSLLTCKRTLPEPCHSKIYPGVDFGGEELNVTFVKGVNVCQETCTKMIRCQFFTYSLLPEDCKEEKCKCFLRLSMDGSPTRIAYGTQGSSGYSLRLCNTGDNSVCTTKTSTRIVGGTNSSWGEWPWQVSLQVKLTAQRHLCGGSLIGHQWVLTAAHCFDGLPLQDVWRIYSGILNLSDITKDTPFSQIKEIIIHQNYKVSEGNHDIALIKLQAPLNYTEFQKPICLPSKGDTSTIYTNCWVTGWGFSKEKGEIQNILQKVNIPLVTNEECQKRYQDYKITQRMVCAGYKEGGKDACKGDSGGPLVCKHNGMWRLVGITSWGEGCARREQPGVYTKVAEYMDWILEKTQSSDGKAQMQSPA

## SEQ ID NO: 98 (CSYPYRCTHQDLC; Synthetic sequence Kallikrein binder identified from selections using a randomised WPAR motif at positions 2, 3, 4 & 5 within the 06-34-03 sequence of PCT/EP2012/069898 (SEQ ID NO 58))
  Frequency (relative abundance in the total selection outputs): 2

## SEQ ID NO: 99 (CSWWARCTHQDLC; Synthetic sequence Kallikrein binder identified from selections using a randomised WPAR motif at positions 2, 3, 4 & 5 within the 06-34-03 sequence of PCT/EP2012/069898 (SEQ ID NO 58))
  Frequency (relative abundance in the total selection outputs): 1

## SEQ ID NO: 100 (CSWPYKCTHQDLC; Synthetic sequence Kallikrein binder identified from selections using a randomised WPAR motif at positions 2, 3, 4 & 5 within the 06-34-03 sequence of PCT/EP2012/069898 (SEQ ID NO 58))
  Frequency (relative abundance in the total selection outputs): 1

## SEQ ID NO: 101 (CSFLYKCTHQDLC; Synthetic sequence Kallikrein binder identified from selections using a randomised WPAR motif at positions 2, 3, 4 & 5 within the 06-34-03 sequence of PCT/EP2012/069898 (SEQ ID NO 58))
  Frequency (relative abundance in the total selection outputs): 2

## SEQ ID NO: 102 (CSLPIRCTHQDLC; Synthetic sequence Kallikrein binder identified from selections using a randomised WPAR motif at positions 2, 3, 4 & 5 within the 06-34-03 sequence of PCT/EP2012/069898 (SEQ ID NO 58))
  Frequency (relative abundance in the total selection outputs): 1

## SEQ ID NO: 103 (CSMPYRCTHQDLC; Synthetic sequence Kallikrein binder identified from selections using a randomised WPAR motif at positions 2, 3, 4 & 5 within the 06-34-03 sequence of PCT/EP2012/069898 (SEQ ID NO 58))
  Frequency (relative abundance in the total selection outputs): 2

## SEQ ID NO: 104 (CSIPFKCTHQDLC; Synthetic sequence Kallikrein binder identified from selections using a randomised WPAR motif at positions 2, 3, 4 & 5 within the 06-34-03 sequence of PCT/EP2012/069898 (SEQ ID NO 58))
  Frequency (relative abundance in the total selection outputs): 1

## SEQ ID NO: 105 (CSYPWRCTHQDLC; Synthetic sequence Kallikrein binder identified from selections using a randomised WPAR motif at positions 2, 3, 4 & 5 within the 06-34-03 sequence of PCT/EP2012/069898 (SEQ ID NO 58))
  Frequency (relative abundance in the total selection outputs): 1

## SEQ ID NO: 106 (CSFPFWCTHQDLC; Synthetic sequence Kallikrein binder identified from selections using a randomised WPAR motif at positions 2, 3, 4 & 5 within the 06-34-03 sequence of PCT/EP2012/069898 (SEQ ID NO 58))
  Frequency (relative abundance in the total selection outputs): 1

## SEQ ID NO: 107 (CSFSYKCTHQDLC; Synthetic sequence Kallikrein binder identified from selections using a randomised WPAR motif at positions 2, 3, 4 & 5 within the 06-34-03 sequence of PCT/EP2012/069898 (SEQ ID NO 58))
  Frequency (relative abundance in the total selection outputs): 1

## SEQ ID NO: 108 (CSWSYRCTHQDLC; Synthetic sequence Kallikrein binder identified from selections using a randomised WPAR motif at positions 2, 3, 4 & 5 within the 06-34-03 sequence of PCT/EP2012/069898 (SEQ ID NO 58))
  Frequency (relative abundance in the total selection outputs): 1

## SEQ ID NO: 109 (CSFMYKCTHQDLC; Synthetic sequence Kallikrein binder identified from selections using a randomised WPAR motif at positions 2, 3, 4 & 5 within the 06-34-03 sequence of PCT/EP2012/069898 (SEQ ID NO 58))
  Frequency (relative abundance in the total selection outputs): 1

## SEQ ID NO: 110 (CSQVVGCTHQDLC; Synthetic sequence Kallikrein binder identified from selections using a randomised WPAR motif at positions 2, 3, 4 & 5 within the 06-34-03 sequence of PCT/EP2012/069898 (SEQ ID NO 58))
  Frequency (relative abundance in the total selection outputs): 1

## SEQ ID NO: 111 (CRWPYHCTHQDLC; Synthetic sequence Kallikrein binder identified from selections using a randomised WPAR motif at positions 2, 3, 4 & 5 within the 06-34-03 sequence of PCT/EP2012/069898 (SEQ ID NO 58))
  Frequency (relative abundance in the total selection outputs): 1

## SEQ ID NO: 112 (CSLFDHCTHQDLC; Synthetic sequence Kallikrein binder identified from selections using a randomised WPAR motif at positions 2, 3, 4 & 5 within the 06-34-03 sequence of PCT/EP2012/069898 (SEQ ID NO 58))
  Frequency (relative abundance in the total selection outputs): 1

## SEQ ID NO: 113 (CSHRRWCTHQDLC; Synthetic sequence Kallikrein binder identified from selections using a randomised WPAR motif at positions 2, 3, 4 & 5 within the 06-34-03 sequence of PCT/EP2012/069898 (SEQ ID NO 58))
  Frequency (relative abundance in the total selection outputs): 1

## SEQ ID NO: 114 (CSWQARCTHQDLC; Synthetic sequence Kallikrein binder identified from selections using a randomised WPAR motif at positions 2, 3, 4 & 5 within the 06-34-03 sequence of PCT/EP2012/069898 (SEQ ID NO 58))
  Frequency (relative abundance in the total selection outputs): 1

## WPFR: phage clone: WPFR at positions 2-5 within the 06-34-03 sequence, TBMB-cyclised (also: TBMB-cyclised within the 06-34-03 context, the cysteines lie outside this motif)
[1]
  Relative abundance of motif in selection output: 3%
[2]
  Relative abundance of motif in selection output: 0%
[3]
  Relative abundance of motif in selection output: 0%
[4]
  Relative abundance of motif in selection output: 6%
Stringency High
  Relative abundance of motif in selection output: 7%
Stringency LOW
  Relative abundance of motif in selection output: 4%

## WPSR: phage clone: WPSR at positions 2-5 within the 06-34-03 sequence, TBMB-cyclised (also: TBMB-cyclised within the 06-34-03 context, the cysteines lie outside this motif)
[1]
  Relative abundance of motif in selection output: 31%
[2]
  Relative abundance of motif in selection output: 41%
[3]
  Relative abundance of motif in selection output: 26%
[4]
  Relative abundance of motif in selection output: 23%
Stringency High
  Relative abundance of motif in selection output: 34%
Stringency LOW
  Relative abundance of motif in selection output: 11%

## WPYR: phage clone: WPYR at positions 2-5 within the 06-34-03 sequence, TBMB-cyclised (also: TBMB-cyclised within the 06-34-03 context, the cysteines lie outside this motif)
[1]
  Relative abundance of motif in selection output: 3%
[2]
  Relative abundance of motif in selection output: 0%
[3]
  Relative abundance of motif in selection output: 4%
[4]
  Relative abundance of motif in selection output: 0%
Stringency High
  Relative abundance of motif in selection output: 3%
Stringency LOW
  Relative abundance of motif in selection output: 0%
